These results are taken from patent US20120225079A1.

The assay deals with cleaved human IgG (human IgG cleaved with the endopeptidases IdeE and IdeE2) (human). The assay can be described thus: cell-based or functional assay.

For “recombinant mature EndoSe of Streptococcus equi subsp. equi (lacking the N-terminal signal sequence) (enzyme)”, the lowest EndoSe concentration at which activity was observed (SDS-PAGE) was 2.6 µg/mL.
